Experiment [1] concerns the target cynomolgus monkey (cyno) TIGIT protein (cynomolgus monkey). Kind of experiment: SPR, bivalent affinity.
Experiment [2] deals with human TIGIT protein (human) (UniProt Q495A1). In words: SPR, bivalent affinity.
For experiment [3] the target is unchanged. In words: SPR, monovalent affinity. (SPR reads the build-up and loss of mass on a sensor chip optically.)
Experiment [4] concerns the target murine TIGIT (murine) (UniProt P86176). Kind of experiment: SPR, monovalent affinity.
The target of experiment [5] is human TIGIT protein (human) (UniProt Q495A1). In words: SPR (BIACORE), N=2.
The target is the same in experiment [6]. In words: SPR (BIACORE) KD normalized to WT, N=2.
The target of experiment [7] is mouse TIGIT-His (mouse) (UniProt P86176). Kind of experiment: Block ELISA Mouse PVR-Fc:TIGIT-His (blocked ligand mouse PVR-Fc). In general terms: An ELISA detects its analyte on a solid surface through an enzyme-linked reagent.
Sequence of mouse TIGIT-His (mouse) (P86176 29-148 limits assumed): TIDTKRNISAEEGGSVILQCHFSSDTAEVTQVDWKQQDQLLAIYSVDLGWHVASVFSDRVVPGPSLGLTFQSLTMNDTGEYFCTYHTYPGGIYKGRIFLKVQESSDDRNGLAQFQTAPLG
Experiment [8] concerns the target cynomolgus TIGIT-AviFlag-biotin (cynomolgus monkey). Kind of experiment: Block ELISA Cyno PVR-Fc:Bio-TIGIT-AviFlag (blocked ligand cyno PVR-Fc).
Experiment [9] has as its target human TIGIT-AviFlag-biotin (human) (UniProt Q495A1). In words: Block ELISA Human PVR-Fc:Bio-TIGIT-AviFlag (blocked ligand human PVR-Fc).

From patent US20220064286A1 come the findings set out here.

A value given as a limit tells only on which side of the number the result lay.

Sequence of human TIGIT-AviFlag-biotin (human) (Q495A1 22-141): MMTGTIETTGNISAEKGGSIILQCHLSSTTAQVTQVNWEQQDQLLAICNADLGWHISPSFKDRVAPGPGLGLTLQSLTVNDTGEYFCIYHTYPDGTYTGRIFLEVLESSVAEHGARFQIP
Sequence of human TIGIT protein (human) (Q495A1 22-141 limits assumed): as the sequence (Q495A1 22-141) above
Sequence of 10A7 (antibody) (VH): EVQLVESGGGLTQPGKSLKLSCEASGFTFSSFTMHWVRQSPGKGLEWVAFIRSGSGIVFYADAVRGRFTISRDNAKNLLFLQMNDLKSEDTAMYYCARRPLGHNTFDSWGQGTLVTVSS
Sequence of 10A7 (antibody) (VL): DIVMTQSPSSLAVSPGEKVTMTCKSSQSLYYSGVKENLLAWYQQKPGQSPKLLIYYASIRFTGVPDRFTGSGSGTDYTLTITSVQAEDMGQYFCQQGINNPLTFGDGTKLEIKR
Sequence of 10A7 Fab (VH): as the sequence (VH) above
Sequence of 10A7 Fab (VL): as the sequence (VL) above
Sequence of cynomolgus TIGIT-AviFlag-biotin (cynomolgus monkey) (chain, as listed by the source): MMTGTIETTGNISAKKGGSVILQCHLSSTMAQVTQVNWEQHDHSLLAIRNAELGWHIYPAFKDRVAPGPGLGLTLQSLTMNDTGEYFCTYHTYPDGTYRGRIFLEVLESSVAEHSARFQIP
Sequence of murine TIGIT (murine) (P86176 29-148 limits assumed): as the sequence (P86176 29-148 limits assumed) above
Sequence of cynomolgus monkey (cyno) TIGIT protein (cynomolgus monkey) (chain, as listed by the source): as the sequence (chain, as listed by the source) above

Take 10A7 (antibody): the Kd came out at 8.22 nM in [1]; 0.54 nM in [2]; 24 nM in experiment [3]; 0.24 nM in experiment [4]; 44.7 nM in [5]. Further, the Binding affinity drop vs. WT in experiment [6] stood at 1 fold. Besides, the IC50 – broadly, the concentration that gives 50% inhibition – was 12.6 nM in [7], 55.7 nM in experiment [8] and 12.9 nM in experiment [9].

Consider xCSF1 Fab control, for which the IC50 in experiment [7], in [8] and in [9] was above 133 nM each time.

On to 10A7 Fab, for which the IC50 in experiment [7] was 20.9 nM; in experiment [8], above 133 nM; in experiment [9], 21.2 nM.
